Experimental data taken from paper PMC3171153.

What was measured:
Assay in all cases: SPR; BIAcore T100; scFv-His10-CLAMP (150 nM) captured on ePDZ-b1 affinity clamp immobilised on a CM5 chip; purified SHC1 injected at increasing concentrations, 30 ul/min; PBS with 0.05% Tween 20; global fit, 1:1 interaction model
[1] = molecular target: anti-SHC1 scFv 72_1A10, His10-CLAMP-tagged
[2] = molecular target: six of the eight chain-shuffled derivatives (positive in immunoprecipitation), as measured by SPR
[3] = molecular target: anti-SHC1 scFv 72_2B01, His10-CLAMP-tagged

Chain of anti-SHC1 scFv 72_1A10, His10-CLAMP-tagged (heavy, as listed by the source): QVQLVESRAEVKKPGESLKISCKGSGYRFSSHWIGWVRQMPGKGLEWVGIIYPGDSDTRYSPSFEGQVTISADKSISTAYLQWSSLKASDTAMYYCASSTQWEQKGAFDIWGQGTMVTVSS

B1: SHC1 SH2 domain (purified SHC1 antigen) (domain or fragment)
chain: WFHGKLSRREAEALLQLNGDFLVRESTTTPGQYVLTGLQSGQPKHLLLVDPEGVVRTKDHRFESVSHLISYHMDNHLPIISAGSELCLQQPV
Work on B1 yielded a Kd [1] of 25 nM, a Kd [2] of less than 60 nM and a koff [2] of less than 0.1 s⁻¹. It also gave a fold improvement in affinity over 58 E05 [3] of 59 fold and a fold reduction in off-rate against 58 E05 [3] of 3.2 fold.
